1 molecule from JPH06217786A can be followed below.

The experiment concerns the target FHV−1-K1ウイルス粒子 (feline herpesvirus-1, strain K1, virus particles; crude ammonium sulfate precipitate). The experiment in a line: cell-based or functional assay.

B1: 抗FHV−1キメラ抗体FH2 (cat-type anti-FHV-1 chimeric antibody FH2) (antibody, part only; not given: cat constant regions, part only)
heavy, part: QVTLKESGPGILQPSQTLSLTCSFSGFSLSTSGMGAGWIRQPSGKGLEWLAHIWWDDVKRYNPALKSRLTISKDTSSSQVFLKIASVDTADTATYFCVRSQIYFDYDGAWFPFWGQGTLVTVSA
light, part: DIVLTQSPATLSVTPGDSVSLSCRASQSISNNLHWYQQKSHESPRLLIKYASQSISGIPSRFSGSGSGTDFTLSINSVETEDFGMYFCQQSNSWPHTFGAGTKLELK
B1: the 最低有効中和濃度 (lowest effective neutralising concentration; 100 TCID50 FHV-1, CPE on CRFK cells) was 1.95 µg/mL.
